Source: patent US7642046B2, “Method for monitoring recruitment of proteins to the intracellular domain of a receptor in intact cells” (priority 2001, dated 2010)

Legend:
CD40 mutants [1] = target: T1, CD40 mutants (Homo sapiens, UniProt P25942, E235A); assay: Recruitment assay in intact cells with CD40 mutants (deletions or point mutations in TRAF binding sites); type: cell-based; conditions: E235A plus deletion of PXQXT254 motif
T1 construct: expressed in transfected cells; host or cells: 293T
T1 sequence (P25942 21-245 E235A): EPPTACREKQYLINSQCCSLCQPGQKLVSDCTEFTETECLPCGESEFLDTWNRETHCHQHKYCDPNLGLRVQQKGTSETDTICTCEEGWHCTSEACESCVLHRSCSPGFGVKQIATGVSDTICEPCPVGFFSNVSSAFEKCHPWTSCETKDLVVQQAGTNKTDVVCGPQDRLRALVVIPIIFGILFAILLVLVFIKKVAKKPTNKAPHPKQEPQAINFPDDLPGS
Description: (§1) The lysates were cleared by centrifugation at 15000 G at 4° C. in a micro-centrifuge, 3 fold serially diluted (with lysis buffer containing 1% bovine serum albumin) and then every diluted sample incubated for 2 hours at room temperature (or overnight) in wells of ELISA microtiter plates coated with a mAb (Ro1) specific to the CD40 extra-cellular domain (Schwabe et al. 1997). For control purposes, instead of the wild type CD40 plasmid, a plasmid encoding a CD40 mutant lacking the entire signaling domain was used for transfection and transient expression (CD401-222, FIG. 1B). Following incubation exhaustive washes were carried out on the microtiter plates to remove any unbound protein [about 10 washing steps with PBS containing 0.05% Tween 20) PBS/Tween)]. To detect bound TRAF1, anti TRAF1 specific antibodies were loaded into the plates, incubated for about 3 hours at room temperature, […] by extensive washes to remove unbound antibody and detecting the bound antibody with an HRP conjugated secondary antibody. All antibodies (except when used as solid phase antibody) were diluted in PBS/Tween containing 1% BSA.
(§2) The recruitment of TRAF to CD40 can be quantitatively measured using the assay described in example 1. For that purpose, the assay conditions were adjusted in such a way that TRAF expression was in significant excess over the expression of CD40. This was the case when the TRAF expression plasmid was used at a two to three fold excess over the CD40 expression plasmid. The CD40 bound TRAF concentration was measured as described in example 1. A reference extract containing CD40/TRAF complexes served as a standard in each assay. This standard extract consisted of a large pool extract from cells that had been co-transfected with the plasmids encoding CD40/TRAF1, CD40/TRAF2, CD40/TRAF3, CD40/TRAF5 and CD40/TRAF6. The extracts were tested for the presence of CD40/TRAF complexes and the complex concentrations in each extract were arbitrarily defined as 1000 U/ml. The extracts were frozen in small aliquots and kept at −80° C. until further use. By comparing unknown samples to these extracts, it was possible to determine the relative CD40-TRAF complex concentrations in arbitrary units. The necessary normalization for sample-to-sample variations in the CD40 expression was calculated with the following formula: […]
(§3) The quantitative version of the TRAF recruitment assay as described in example 3 was used to compare CD40 and various CD40 mutants with respect to their TRAF recruitment behaviour. TRAF 1, 2, 3, 5 and 6 were examined. […] Additional deletion of the TRAF1/2/3/5 binding motif PXQXT254 at amino acid position 250 to 254 reduced the binding of all 5 TRAFs test to background levels (1-254EA in FIG. 3B). […]

CD40 mutants [2] = target: T2, CD40 mutants (Homo sapiens, UniProt P25942); assay: as above; type: cell-based; conditions: CD40-222 (CD40 1-222) control, 293T cells
T2 construct: expressed in transfected cells; host or cells: 293T
T2 sequence (P25942 21-222, change not shown): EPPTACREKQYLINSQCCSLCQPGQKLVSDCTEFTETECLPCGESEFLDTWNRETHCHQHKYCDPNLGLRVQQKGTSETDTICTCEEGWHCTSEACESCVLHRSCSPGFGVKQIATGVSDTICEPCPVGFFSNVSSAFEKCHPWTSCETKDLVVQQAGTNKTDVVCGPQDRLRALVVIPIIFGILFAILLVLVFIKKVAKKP
Description: as §1, §2, §3

| binding to CD40 mutant 1-254EA (CD40 mutants [1]) | recruitment to signalling-domain-deficient CD40 mutant (CD40 mutants [2]) | Molecule |
| --- | --- | --- |
| did not bind | – | TRAF2: TNF receptor associated factor 2, human adaptor protein expressed from pcDNA3 (protein, UniProt Q12933 1-501, looked up, full-length, TNF receptor associated factor 2, human adaptor protein expressed from pcDNA3) MAAASVTPPGSLELLQPGFSKTLLGTKLEAKYLCSACRNVLRRPFQAQCGHRYCSFCLASILSSGPQNCAACVHEGIYEEGISILESSSAFPDNAARREVESLPAVCPSDGCTWKGTLKEYESCHEGRCPLMLTECPACKGLVRLGEKERHLEHECPERSLSCRHCRAPCCGADVKAHHEVCPKFPLTCDGCGKKKIPREKFQDHVKTCGKCRVPCRFHAIGCLETVEGEKQQEHEVQWLREHLAMLLSSVLEAKPLLGDQSHAGSELLQRCESLEKKTATFENIVCVLNREVERVAMTAEACSRQHRLDQDKIEALSSKVQQLERSIGLKDLAMADLEQKVLEMEASTYDGVFIWKISDFARKRQEAVAGRIPAIFSPAFYTSRYGYKMCLRIYLNGDGTGRGTHLSLFFVVMKGPNDALLRWPFNQKVTLMLLDQNNREHVIDAFRPDVTSSSFQRPVNDMNIASGCPLFCPVSKMEAKNSYVRDDAIFIKAIVDLTGL |
| – | undetectable | TRAF1: TNF receptor associated factor 1, adaptor protein overexpressed in 293T cells from pcDNA3 (protein, UniProt Q13077 1-416, looked up, full-length, TNF receptor associated factor 1, adaptor protein overexpressed in 293T cells from pcDNA3) MASSSGSSPRPAPDENEFPFGCPPTVCQDPKEPRALCCAGCLSENPRNGEDQICPKCRGEDLQSISPGSRLRTQEKAHPEVAEAGIGCPFAGVGCSFKGSPQSVQEHEVTSQTSHLNLLLGFMKQWKARLGCGLESGPMALEQNLSDLQLQAAVEVAGDLEVDCYRAPCSESQEELALQHFMKEKLLAELEGKLRVFENIVAVLNKEVEASHLALATSIHQSQLDRERILSLEQRVVELQQTLAQKDQALGKLEQSLRLMEEASFDGTFLWKITNVTRRCHESACGRTVSLFSPAFYTAKYGYKLCLRLYLNGDGTGKRTHLSLFIVIMRGEYDALLPWPFRNKVTFMLLDQNNREHAIDAFRPDLSSASFQRPQSETNVASGCPLFFPLSKLQSPKHAYVKDDTMFLKCIVETST |
